We go through 30 substances from US10472401B2, “Peptides and combination of peptides for use in immunotherapy against ovarian cancer and other cancers” (immatics biotechnologies GmbH, priority 2015, dated 2019).

The target in the test is HLA-A*02:01 (Homo sapiens, UniProt P04439, D140Y/D185E/D98H/E176V/E277Q/G131W/G231S/I119V/I121R/I166T/I218V/L300P/L318F/N151K/N90K/P208A/P217A/Q86G/Q94H/R138H/R169H/T345S). The experiment in a line: MHC binding assay (UV-ligand exchange, ELISA of stabilized MHC complexes). Conditions: MHC class I binding score; binding to HLA-A*02:01 ranged by peptide exchange yield (UV-ligand exchange, ELISA). The text has this:
Candidate peptides for T cell based therapies according to the present invention were further tested for their MHC binding capacity (affinity). The individual peptide-MHC complexes were produced by UV-ligand exchange, where a UV-sensitive peptide is cleaved upon UV-irradiation, and exchanged with the peptide of interest as analyzed. Only peptide candidates that can effectively bind and stabilize the peptide-receptive MHC molecules prevent dissociation of the MHC complexes. To determine the yield of the exchange reaction, an ELISA was performed based on the detection of the light chain (β2m) of stabilized MHC complexes. The assay was performed as generally described in Rodenko et al. (Rodenko et al., 2006).
96 well MAXISorp plates (NUNC) were coated over night with 2 ug/ml streptavidin in PBS at room temperature, washed 4× and blocked for 1h at 37° C. in 2% BSA containing blocking buffer. […] Peptide-MHC monomers of the UV-exchange reaction were diluted 100 fold in blocking buffer. Samples were incubated for 1h at 37° C., washed four times, incubated with 2 ug/ml HRP conjugated anti-82m for 1h at 37° C., washed again and detected with TMB solution that is stopped with […]. Absorption was measured at 450 nm. Candidate peptides that show a high exchange yield (preferably higher than 50%, most preferred higher than 75%) are generally preferred for a generation and production of antibodies or fragments thereof, and/or T cell receptors or fragments thereof, as they show sufficient avidity to the MHC molecules and prevent dissociation of the MHC complexes.
For orientation: ELISA stands for enzyme-linked immunosorbent assay.
On to “1 (SLMEPPAVLLL; listed as Homo sapiens) [compound 1]”, for which the Peptide exchange entry is listed as “″+++″ (≥50% = +++)”. Turning to “4 (GIMEHITKI; listed as Homo sapiens) [compound 4]”, the Peptide exchange result was “″++++″ (≥75% = ++++)”. For “5 (HLTEVYPEL; listed as Homo sapiens) [compound 5]”, the Peptide exchange result is listed as “″+++″ (≥50% = +++)”. The value for “6 (VLVSDGVHSV; listed as Homo sapiens) [compound 6]” was “″+++″ (≥50% = +++)”; that for “7 (SLVGLLLYL; listed as Homo sapiens) [compound 7]” was “″++++″ (≥75% = ++++)”; that for “9 (GAAKDLPGV; listed as Homo sapiens) [compound 9]” was “″++″ (≥20% = ++)”.

“10 (FLATFPLAAV; listed as Homo sapiens) [compound 10]”: the Peptide exchange entry is given as “″++++″ (≥75% = ++++)”. To “12 (SLWPDPMEV; listed as Homo sapiens) [compound 12]” belongs “″+++″ (≥50% = +++)”; to “13 (YLMDESLNL; listed as Homo sapiens) [compound 13]”, “″+++″ (≥50% = +++)”; to “14 (AAYGGLNEKSFV; listed as Homo sapiens) [compound 14]”, “″+++″ (≥50% = +++)”. To “15 (VLLTFKIFL; listed as Homo sapiens) [compound 15]” belongs “″++″ (≥20% = ++)”. To “16 (VLFQGQASL; listed as Homo sapiens) [compound 16]” belongs “″+++″ (≥50% = +++)”; to “17 (GLLPGDRLVSV; listed as Homo sapiens) [compound 17]”, “″+++″ (≥50% = +++)”; to “18 (YLVAKLVEV; listed as Homo sapiens) [compound 18]”, “″++″ (≥20% = ++)”.

As for “19 (FMVDNEAIYDI; listed as Homo sapiens) [compound 19]”, the Peptide exchange entry is on record as “″++++″ (≥75% = ++++)”. The value for “20 (RMIEYFIDV; listed as Homo sapiens) [compound 20]” was “″+++″ (≥50% = +++)”; that for “21 (VLDELDMEL; listed as Homo sapiens) [compound 21]” was “″++″ (≥20% = ++)”; that for “22 (IMEENPGIFAV; listed as Homo sapiens) [compound 22]” was “″+++″ (≥50% = +++)”. The value for “23 (VLLDDIFAQL; listed as Homo sapiens) [compound 23]” was “″+++″ (≥50% = +++)”; that for “24 (SLSDGLEEV; listed as Homo sapiens) [compound 24]” was “″++″ (≥20% = ++)”.

For the substance “25 (FLPDEPYIKV; listed as Homo sapiens) [compound 25]”, the Peptide exchange entry was “″+++″ (≥50% = +++)”. The value for “26 (ALLELAEEL; listed as Homo sapiens) [compound 26]” was “″+++″ (≥50% = +++)”; that for “27 (ILADIVISA; listed as Homo sapiens) [compound 27]” was “″+++″ (≥50% = +++)”. As to “28 (QLLDETSAITL; listed as Homo sapiens) [compound 28]”, the Peptide exchange result is “″+++″ (≥50% = +++)”. To “29 (KMLGIPISNILMV; listed as Homo sapiens) [compound 29]” belongs “″+++″ (≥50% = +++)”.

In the case of “30 (LILDWVPYI; listed as Homo sapiens) [compound 30]”, the Peptide exchange result is listed as “″+++″ (≥50% = +++)”. The value for “31 (YLAPELFVNV; listed as Homo sapiens) [compound 31]” was “″++″ (≥20% = ++)”; that for “32 (KLDDLTQDLTV; listed as Homo sapiens) [compound 32]” was “″++″ (≥20% = ++)”. As for “33 (VLLSLLEKV; listed as Homo sapiens) [compound 33]”, the Peptide exchange entry was “″++″ (≥20% = ++)”. To “34 (ILVEADSLWVV; listed as Homo sapiens) [compound 34]” belongs “″+++″ (≥50% = +++)”.
